Drawing on patent US20240398911A1, this text covers Kd, koff and kon for one substance.

Common to all, as to test: BLI, sACE22-IgG1 immobilized, RBD-8h analyte
A general note: In BLI a coated tip is dipped into the sample, and binding shifts an interference pattern.

For assay [1], the target named is 8his-tagged RBD of the S protein of bat coronavirus isolate LYRa11 (bat coronavirus LYRa11).
For assay [2], the target named is 8his-tagged RBD of the S protein of bat coronavirus isolate Rs7327 (bat coronavirus Rs7327).
The target in assay [3] is 8his-tagged RBD of the S protein of bat coronavirus isolate Rs4084 (bat coronavirus Rs4084).
The target of assay [4] is 8his-tagged RBD of the S protein of bat coronavirus isolate RsSHC014 (bat coronavirus RsSHC014).
In assay [5] the target is 8his-tagged RBD of the S protein of bat coronavirus isolate Rs4231 (bat coronavirus Rs4231).

On to “wild type dimeric sACE22 (a.a. S19-G732) fused to the Fc of human IgG1 (from UniProt Q9BYF1 19-732) (Fc fusion)”, for which the Kd (usually the equilibrium constant for the complex coming apart) came out at 0.091 µM in assay [1]; 0.063 µM in assay [2]; 0.085 µM in assay [3]; 0.029 µM in assay [4]; 0.069 µM in assay [5]. The off-rate constant (koff) (commonly the first-order rate constant of dissociation) in assay [1] came out at 0.079 s⁻¹; in assay [2], 0.04 s⁻¹; in assay [3] it was 0.025 s⁻¹; in assay [4], 0.026 s⁻¹; in assay [5], 0.022 s⁻¹. Further, the kon (commonly the second-order rate constant of association) in assay [1] was determined as 870000 M⁻¹ s⁻¹; in assay [2], 640000 M⁻¹ s⁻¹; in assay [3] it was 290000 M⁻¹ s⁻¹; in assay [4] it was 880000 M⁻¹ s⁻¹; in assay [5] it was 320000 M⁻¹ s⁻¹.
